Patent US20260217863A1, “ANTIBODY OR PEPTIDE BINDING SPECIFICALLY TO RNASE A, IMMUNOASSAY DEVICE AND METHOD FOR DETECTING RNASE A, AND METHOD FOR COLLECTING RNASE A” (UIF (University Industry Foundation), Yonsei University, priority 2022, published 2026)
Residue numbers refer to the chain shown, from its start. Each block holds one binder with its values, some of them ahead of it.

Legend:
[1] = biological target: Ribonuclease A (Type II-A) from bovine pancreas (bovine) (UniProt P61823); assay: flow cytometry, E. coli surface-displayed Fv, titration of fluorescently labeled RNase A, fit with an adsorption model
Chain of Ribonuclease A (Type II-A) from bovine pancreas (bovine) (P61823 27-150): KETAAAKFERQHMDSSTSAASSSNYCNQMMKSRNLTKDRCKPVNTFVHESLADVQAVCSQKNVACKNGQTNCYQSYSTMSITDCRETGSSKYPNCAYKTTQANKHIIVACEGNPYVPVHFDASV

[2] = biological target: Ribonuclease A (Type II-A) from bovine pancreas (bovine) (UniProt P61823); assay: flow cytometry (FL1-H) of E. coli displaying the Fv variant, incubated with fluorescence-labeled RNase-A

Kd [1]: 23.8 µM
fluorescence intensity, at 3.125 µM fluorescence-labeled RNase-A [2]: 31.5 a.u.
fluorescence intensity, at 6.25 µM fluorescence-labeled RNase-A [2]: 44.7 a.u.
fluorescence intensity, at 12.5 µM fluorescence-labeled RNase-A [2]: 72.3 a.u.
fluorescence intensity, at 25 µM fluorescence-labeled RNase-A [2]: 108 a.u.
fluorescence intensity, at 50 µM fluorescence-labeled RNase-A [2]: 167 a.u.
fluorescence intensity, at 100 µM fluorescence-labeled RNase-A [2]: 196 a.u.
B1: Fv variant clone 5, surface-expressed on the outer membrane of E. coli (protein, part only; not given: AIDA-1 display anchor and linker, not shown: another chain or arm of the molecule; large carriers; small tags and cut ends)
VH: EVQLVESAAEVRRPGASVKITCKASGYSFSTYGIQWMRQAPGQRPEWLGWIHAGTGGTKYSRKFQGRITITRDTSANTVYLDLNSLTSEDTAVYYCARCGPDSDVMTDFWGQGTTVTVSS

Kd [1]: 28.7 µM
fluorescence intensity, at 3.125 µM fluorescence-labeled RNase-A [2]: 15.5 a.u.
fluorescence intensity, at 6.25 µM fluorescence-labeled RNase-A [2]: 19.9 a.u.
fluorescence intensity, at 12.5 µM fluorescence-labeled RNase-A [2]: 23.3 a.u.
fluorescence intensity, at 25 µM fluorescence-labeled RNase-A [2]: 31.8 a.u.
fluorescence intensity, at 50 µM fluorescence-labeled RNase-A [2]: 37.8 a.u.
fluorescence intensity, at 100 µM fluorescence-labeled RNase-A [2]: 51.9 a.u.
B2: Fv variant clone 39, surface-expressed on the outer membrane of E. coli (protein, part only; not given: AIDA-1 display anchor and linker, not shown: another chain or arm of the molecule; large carriers; small tags and cut ends)
VH: B1 VH with C99D, P101T, D102A, S103K, D104K, V105S, M106R, T107K, F109D

Kd [1]: 29.4 µM
fluorescence intensity, at 3.125 µM fluorescence-labeled RNase-A [2]: 14 a.u.
fluorescence intensity, at 6.25 µM fluorescence-labeled RNase-A [2]: 17.2 a.u.
fluorescence intensity, at 12.5 µM fluorescence-labeled RNase-A [2]: 23.8 a.u.
fluorescence intensity, at 25 µM fluorescence-labeled RNase-A [2]: 37.5 a.u.
fluorescence intensity, at 50 µM fluorescence-labeled RNase-A [2]: 47.9 a.u.
fluorescence intensity, at 100 µM fluorescence-labeled RNase-A [2]: 69.7 a.u.
B3: Fv variant clone 23, surface-expressed on the outer membrane of E. coli (protein, part only; not given: AIDA-1 display anchor and linker, not shown: another chain or arm of the molecule; large carriers; small tags and cut ends)
VH: B1 VH with C99Y, D102V, S103G, D104R, M106K, T107R, F109D
